These results are taken from patent US7608691B2, “Antibodies against IL-16 antagonist peptides” (Trustees of Boston University, priority 1999, dated 2009).

Changes are numbered by the printed parent chain.

For one assay, the target named is T1, IL-16 (Homo sapiens, UniProt Q14005).
T1 construct: Recombinant human IL-16 corresponding to the 121 C-terminal amino biologically active cytokine cleaved from natural pro-IL-16; polyhistidine (pET-30 LIC) (N, cleaved yes); made in house; host or cells: E. coli
T1 sequence (Q14005 1212-1332): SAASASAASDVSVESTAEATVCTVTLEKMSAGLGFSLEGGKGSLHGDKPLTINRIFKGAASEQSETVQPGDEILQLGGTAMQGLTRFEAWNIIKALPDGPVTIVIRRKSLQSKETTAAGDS
The assay can be described thus: Modified Boyden chamber chemotaxis assay: inhibition of IL-16-stimulated T lymphocyte motility. The format is cell-based. The settings on record: human T lymphocytes; rIL-16 10^-9, 10^-10 or 10^-11 M; peptide 10 μg/ml; 4 h. On the procedure: (§1) The mononuclear cell layer was washed with medium 199 (M. A. Bioproducts, Walkersville, Md.) supplemented with 0.4% bovine serum albumin, 25 mM HEPES buffer, and 100 U/ml of penicillin and 100 μg/ml streptomycin (M199-HPS). Samples were enriched for T lymphocytes by nylon wool adherence as described (Julius, et al., Eur. J. Immunol. 3:645, 1973). The nonadherent cells were >95% CD3^+ as determined by flow cytometry.
Recombinant human IL-16 corresponding to the 121 C-terminal amino biologically active cytokine cleaved from natural pro-IL-16 was produced in E. coli as a polyhistidine fusion protein using the expression vector pET-30 LIC (Novagen, Madison, Wis.). Following lysis of transformed bacteria, the protein was purified by metal chelation chromatography and the N-terminal polyhistidine tag was removed by cleavage with enterokinase.
A series of oligopeptides derived from the 16 C-terminal of human IL-16 residues were prepared (FIG. 1) and tested for their ability to […] the T lymphocyte motility using a modified Boyden chemotaxis chamber assay.
Human T lymphocytes were loaded in the upper wells, and rIL-16 at concentrations of 10^−9 M, 10^−10 M or 10^−11 M was loaded in the lower wells, in the presence or absence of two 8-mer peptides corresponding to amino acids Arg^106 to Lys^113 (SEQ ID NO:24), and Glu^114 to Ser^121 (SEQ ID NO:46) of IL-16. […] To further define the residues mediating inhibition, the eight residue sequence from Arg^106 to Lys^113 was divided into RRKS (SEQ ID NO:2) and LQSK (SEQ ID NO:48).

The next assay has as its system Leu 3a mAb. The assay can be described thus: Chemotaxis assay: T cell migration in response to anti-CD4 mAb Leu 3a with peptide. In kind it is cell-based. The settings on record: Leu 3a 0.5, 1.0, 5.0 μg/ml; peptide 10 μg/ml.
Assay [1] deals with HIV-1 gp120 (strain HIV-13B) (Human immunodeficiency virus type 1 group M subtype B, UniProt P04578). The following applies: gp120 0.5, 1.0, 5.0 μg/ml; peptide 10 μg/ml.
Protocol: (§2) Cells were suspended (5×10^6 cells/ml) in M199-HPS and loaded into the upper wells, separated by an 8 μm pore size nitrocellulose membrane from lower wells. […] After a 4 h incubation at 37° C., the membranes were removed and stained with hematoxylin, dehydrated by sequential washes in ethanol and propanol, then washed in xylene to clarify the filter for cell counting by light microscopy. Cell migration was quantified by counting the number of cells in the filter that had moved beyond a depth of 50 μm in five separate fields in duplicate wells for all conditions. Cell counts were compared with unstimulated control cell migration which was normalized to 100%. Results are expressed as mean % control migration and the data analyzed for statistical significance (P<0.05) by Student=s t test.
Another assay concerns the target T2, murine IL-16 (Mus musculus, UniProt O54824).
T2 sequence (O54824 1205-1322 T1262D/E1263R/Q1264T limits assumed): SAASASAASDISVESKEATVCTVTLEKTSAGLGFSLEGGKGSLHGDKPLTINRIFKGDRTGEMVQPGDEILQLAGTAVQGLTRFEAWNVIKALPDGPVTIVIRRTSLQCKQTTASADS
The following applies: cited from earlier work.

For assay [2], the target named is T3, natural and recombinant human IL-16 (Homo sapiens, UniProt Q14005).
T3 sequence (Q14005 1212-1332 limits assumed): T1 sequence (Q14005 1212-1332)
The following applies: cited from earlier work.

The next assay has as its system human T lymphocytes. The assay is described as follows: Chemotaxis assay: chemoattractant activity of mutated rIL-16. The format is cell-based. The following applies: 10^-8 to 10^-11 M. The procedure:
as §1
The native IL-16 expression vector (pET-30/L-16^121) was used as a template for PCR mutagenesis to create four recombinant IL-16 (rIL-16) mutant constructs with progressive four amino acid deletions at the C-terminus (C-4 to C-16), as well as deletions of 12 or 22 N-terminal residues. Two double deletion constructs lacking the first 12 or 22 N-terminal residues as well as the last 16 C-terminal residues of IL-16 were also produced. Point mutations in C-terminal residues of rIL-16 were generated by site-directed mutagenesis using the Stratagene Quick Change Kit (Stratagene, La Jolla, Calif.) according to the manufacturer=s specifications. The point mutations included alanine substitution for Arg^106, Arg^107, and Arg^106 plus Arg^107.
IL-16 mutant constructs were created with progressive deletions of 4 C-terminal amino acids from C-4 through C-16 (FIG. 4). The C-12 construct terminates at Ser^108, retaining the RRKS motif. The C-16 construct terminates at Ile^105, deleting RRKS and succeeding downstream residues. These mutant IL-16 molecules were tested in chemotaxis assays.

For assay [3], the system named is Mixed Lymphocyte Reaction. The assay is described as follows: Inhibition of the one way mixed lymphocyte reaction (MLR). In kind it is cell-based, human. The following applies: for capacity to inhibit the MLR: responder T lymphocytes pre-treated, 10^-8 to 10^-11 M. The procedure: Stimulator cells for mixed lymphocyte reactions were prepared by incubating PBMC (10^6/ml) with 25 μg/ml mitomycin C for 30 min. The cells were then washed four times with RPMI 1640 medium supplemented with 25 mM HEPES buffer, 100 U/ml penicillin, and 100 μg/ml streptomycin (RPMI 1640-HPS), then resuspended in RPMI 1640-HPS supplemented with 10% fetal bovine serum (complete medium) at 10^6 cells/ml. Responder cells were prepared from an unrelated donor, suspended in complete medium at 10^6 cells/ml, and pre-incubated (1 h, 37° C.) with control buffer, or with rIL-16 or mutated rIL-16 constructs (10^−9 M to 10^−11 M). Stimulator cells were then added (1:1) and the cell mixtures were transferred in quadruplicate to 96-well round-bottom plates. Cell cultures were pulsed with [^3H] thymidine on day 5, harvested with a Titertek cell harvester, and counted in a Becton Dickinson scintillation counter on day 6. Results are expressed as mean % cpm above background. SEM.
To determine whether other biological activities of IL-16 are mediated by the C-terminal domain, the native and mutated rIL-16 constructs were tested for their capacity of inhibiting the one way MLR. Responder T lymphocytes were pre-treated with rIL-16 or control buffer, then cultured with mitomycin C-treated stimulator PBMC from an unrelated donor. Pre-treatment with 10^−8 M native rIL-16 reduced thymidine incorporation on day 6 by nearly 70%, compared with untreated cells.

Protocol for Leu 3a mAb: as §2

For ETTAAGDS [SEQ ID NO:46], the “inhibition of IL-16-stimulated T cell migration” value with IL-16 was “only the Arg^106 to Lys^113 peptide (SEQ ID NO:24) inhibited IL-16”.

Take LQSK: the “inhibition of IL-16-stimulated T cell migration” value with IL-16 is recorded as “Only RRKS (SEQ ID NO:2) inhibited IL-16 chemoattractant activity”.

For the molecule RRAS, the “inhibition of IL-16-stimulated T cell migration” value in the assay with IL-16 was “inhibited IL-16 as effectively as the native RRKS”.

As to RRKA, in the assay with IL-16, the “inhibition of IL-16-stimulated T cell migration” value is given as “inhibited IL-16 as effectively as the native RRKS”.

Regarding RRKS, the “inhibition of IL-16-stimulated T cell migration” value in the assay with IL-16 was “inhibited IL-16 chemoattractant activity”. Also, the “blocking of cell migration in response to divalent anti-CD4 mAb Leu 3a” value in the assay with Leu 3a mAb was “not blocked”. The “blocking of cell migration in response to HIV-1 gp120” value in assay [1] is on record as “not blocked”.

For the molecule RRKSLQ, the “inhibition of IL-16-stimulated T cell migration” value with IL-16 is “inhibited IL-16-stimulated T cell migration”.

For RRKSLQSK [SEQ ID NO:24], in the assay with IL-16, the “inhibition of IL-16-stimulated T cell migration” value was “inhibited IL-16”.

On to “RRKSLQSKETTAAGDS [Arg106 to Ser121, synthetic oligopeptide corresponding to the 16 C-terminal amino acids of human IL-16]”, for which the “inhibition of chemoattractant activity of murine IL-16” value with murine IL-16 is given as “inhibit the chemoattractant activity”. The “inhibition of chemoattractant activity of natural and recombinant human IL-16” value in assay [2] is listed as “inhibit the chemoattractant activity”.

Turning to “RSQRLK [SEQ ID NO:47, reference compound]”, in the assay with IL-16, the “inhibition of IL-16-stimulated T cell migration” value is “no inhibitory activity”.

B1: N-12: rIL-16 construct with deletion of 12 N-terminal amino acids (protein)
chain: VESTAEATVCTVTLEKMSAGLGFSLEGGKGSLHGDKPLTINRIFKGAASEQSETVQPGDEILQLGGTAMQGLTRFEAWNIIKALPDGPVTIVIRRKSLQSKETTAAGDS
Take B1: the “chemoattractant activity of mutated rIL-16” value with human T lymphocytes was “comparable to native IL-16”. In assay [3], the “capacity to inhibit the MLR” value is “reduced but not eliminated”.

B2: C-16: rIL-16 mutant terminating at Ile^105, deleting RRKS and succeeding downstream residues (protein)
chain: SAASASAASDVSVESTAEATVCTVTLEKMSAGLGFSLEGGKGSLHGDKPLTINRIFKGAASEQSETVQPGDEILQLGGTAMQGLTRFEAWNIIKALPDGPVTIVI
As to B2, the “chemoattractant activity of mutated rIL-16” value with human T lymphocytes was “completely eliminated the chemoattractant activity”. In assay [3], the “shift of the dose response of MLR inhibition versus native rIL-16” value was about 1 log and the “capacity to inhibit the MLR” value is “nearly as active as native rIL-16”.

B3: N-22: rIL-16 construct with deletion of 22 N-terminal amino acids (protein)
chain: TVTLEKMSAGLGFSLEGGKGSLHGDKPLTINRIFKGAASEQSETVQPGDEILQLGGTAMQGLTRFEAWNIIKALPDGPVTIVIRRKSLQSKETTAAGDS
As to B3, the “chemoattractant activity of mutated rIL-16” value in the assay on human T lymphocytes is “comparable to native IL-16”. Further, the “capacity to inhibit the MLR” value in assay [3] is recorded as “reduced but not eliminated”.

B4: Arg^107 alone: rIL-16 point mutation Arg^107 to alanine (protein)
chain: T1 sequence (Q14005 1212-1332) with R107A
B4: the “chemoattractant activity of mutated rIL-16” value with human T lymphocytes is on record as “completely abrogated chemoattractant activity”.

B5: Arg^106 plus Arg^107: rIL-16 point mutation Arg^106 plus Arg^107 to alanine (protein)
chain: T1 sequence (Q14005 1212-1332) with R106A, R107A
B5: in the assay with human T lymphocytes, the “chemoattractant activity of mutated rIL-16” value is on record as “completely abrogated chemoattractant activity”.

B6: native rIL-16: Recombinant human IL-16, 121 C-terminal amino acids of pro-IL-16, produced in E. coli (protein)
chain: T1 sequence (Q14005 1212-1332)
For the molecule B6, in assay [3] (pre-treatment with 10^-8 M, day 6), the “reduction of thymidine incorporation in MLR compared with untreated cells” value is recorded as about 70%.

B7: Arg^106 alone: rIL-16 point mutation Arg^106 to alanine (protein)
chain: T1 sequence (Q14005 1212-1332) with R106A
As to B7, the “chemoattractant activity of mutated rIL-16” value in the assay on human T lymphocytes is given as “retained full activity”.

B8: C-12: rIL-16 mutant with deletion of 12 C-terminal residues, retaining the RRKS motif (protein)
chain: SAASASAASDVSVESTAEATVCTVTLEKMSAGLGFSLEGGKGSLHGDKPLTINRIFKGAASEQSETVQPGDEILQLGGTAMQGLTRFEAWNIIKALPDGPVTIVIRRKS
B8: the “chemoattractant activity of mutated rIL-16” value with human T lymphocytes is “active as native rIL-16”.
